Results on seven molecules are retold here after US20210284709A1 (JUNO THERAPEUTICS, published 2021).

Sequences and labels used below:
B1: TCR 55 (codon-optimized, cysteine-modified) (TCR)
TCR alpha: GEDVEQSLFLSVREGDSSVINCTYTDSSSTYLYWYKQEPGAGLQLLTYIFSNMDMKQDQRLTVLLNKKDKHLSLRIADTQTGDSAIYFCAVPSGATNKLIFGTGTLLAVQPNIQNPDPAVYQLRDSKSSDKSVCLFTDFDSQTNVSQSKDSDVYITDKCVLDMRSMDFKSNSAVAWSNKSDFACANAFNNSIIPEDTFFPSPESSCDVKLVEKSFETDTNLNFQNLSVIGFRILLLKVAGFNLLMTLRLWSS
TCR beta: EPEVTQTPSHQVTQMGQEVILRCVPISNHLYFYWYRQILGQKVEFLVSFYNNEISEKSEIFDDQFSVERPDGSNFTLKIRSTKLEDSAMYFCASTTRSSYEQYFGPGTRLTVTEDLKNVFPPEVAVFEPSEAEISHTQKATLVCLATGFYPDHVELSWWVNGKEVHSGVCTDPQPLKEQPALNDSRYCLSSRLRVSATFWQNPRNHFRCQVQFYGLSENDEWTQDRAKPVTQIVSAEAWGRADCGFTSESYQQGVLSATILYEILLGKATLYAVLVSALVLMAMVKRKDSRG
B2: TCR 31 (codon-optimized, cysteine-modified) (TCR, V domains shown)
V domain 1: DQQVKQNSPSLSVQEGRISILNCDYTNSMFDYFLWYKKYPAEGPTFLISISSIKDKNEDGRFTVFLNKSAKHLSLHIVPSQPGDSAVYFCAASERGTYKYIFGTGTRLKVLA
V domain 2: GAGVSQSPSNKVTEKGKDVELRCDPISGHTALYWYRQSLGQGLEFLIYFQGNSAPDKSGLPSDRFSAERTGGSVSTLTIQRTQQEDSAVYLCASSRFLGSTDTQYFGPGTRLTVLE
B3: TCR 32 (codon-optimized, cysteine-modified) (TCR, V domains shown)
V domain 1: TQLLEQSPQFLSIQEGENLTVYCNSSSVFSSLQWYRQEPGEGPVLLVTVVTGGEVKKLKRLTFQFGDARKDSSLHITAAQPGDTGLYLCAGGSNYKLTFGKGTLLTVNP
V domain 2: DSGVTQTPKHLITATGQRVTLRCSPRSGDLSVYWYQQSLDQGLQFLIQYYNGEERAKGNILERFSAQQFPDLHSELNLSSLELGDSALYFCASSVGGDHSDEQFFGPGTRLTVLE
B4: TCR 16 (codon-optimized, cysteine-modified) (TCR, V domains shown)
V domain 1: KQEVTQIPAALSVPEGENLVLNCSFTDSAIYNLQWFRQDPGKGLTSLLLIQSSQREQTSGRLNASLDKSSGRSTLYIAASQPGDSATYLCAVRPANNNDMRFGAGTRLTVKP
V domain 2: DVKVTQSSRYLVKRTGEKVFLECVQDMDHENMFWYRQDPGLGLRLIYFSYDVKMKEKGDIPEGYSVSREKKERFSLILESASTNQTSMYLCASSLWGRSNQPQHFGDGTRLSILE
B5: TCR 19 (codon-optimized, cysteine-modified) (TCR, V domains shown)
V domain 1: AQKITQTQPGMFVQEKEAVTLDCTYDTSDQSYGLFWYKQPSSGEMIFLIYQGSYDEQNATEGRYSLNFQKARKSANLVISASQLGDSAMYFCAMRENTGTASKLTFGTGTRLQVTL
V domain 2: B4 V domain 2 with L95S, R98Q, N100T, Q101G, P102E, H104Y, D107P, S112T, I113V, L114T
B6: TCR 15 (codon-optimized, cysteine-modified) (TCR, V domains shown)
V domain 1: AQKITQTQPGMFVQEKEAVTLDCTYDTSDQSYGLFWYKQPSSGEMIFLIYQGSYDEQNATEGRYSLNFQKARKSANLVISASQLGDSAMYFCAMKPGGYNKLIFGAGTRLAVHP
V domain 2: DAGVIQSPRHEVTEMGQEVTLRCKPISGHNSLFWYRQTMMRGLELLIYFNNNVPIDDSGMPEDRFSAKMPNASFSTLKIQPSEPRDSAVYFCASSLVGRSRTEQYFGPGTRLTVTE
B7: TCR 20 (codon-optimized, cysteine-modified) (TCR, V domains shown)
V domain 1: AQKVTQAQTEISVVEKEDVTLDCVYETRDTTYYLFWYKQPPSGELVFLIRRNSFDEQNEISGRYSWNFQKSTSSFNFTITASQVVDSAVYFCALWTGANNLFFGTGTRLTVIP
V domain 2: GAVVSQHPSRVICKSGTSVKIECRSLDFQATTMFWYRQFPKQSLMLMATSNEGSKATYEQGVEKDKFLINHASLTLSTLTVTSAHPEDSSFYICSASSLARRSYEQYFGPGTRLTVTE

Substitutions are numbered along the chain they refer to.
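For % cells E6 tet+/CD8+ quadrant in this document: CD4+ and CD4+/CD8+ cell mixtures transiently given TCR plasmids, analysed 48 h post-transfection by flow cytometry with E6(29-38)–HLA-A*02:01 tetramer plus anti-CD8 antibody co-stain.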
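For % cells E6 tet+/CD8- quadrant in this document: CD4+ and CD4+/CD8+ cell mixtures transiently given TCR plasmids, analysed 48 h post-transfection by flow cytometry with E6(29-38)–HLA-A*02:01 tetramer plus anti-CD8 antibody co-stain.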
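For % cells E7 tet+/CD8+ quadrant in this document: cells transiently transfected with TCR-encoding plasmids, analysed 48 h afterwards by co-staining with HLA-A*02:01 peptide tetramer and anti-CD8 antibody.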
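For % cells E7 tet+/CD8- quadrant in this document: cells transiently transfected with TCR-encoding plasmids, analysed 48 h afterwards by co-staining with HLA-A*02:01 peptide tetramer and anti-CD8 antibody.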

In one experiment the target is T1, HLA-A2/E7(11-19) tetramer (human; HPV 16).
T1 construct: also called E7(11-19) peptide-MHC tetramer; E7 tet
The experiment can be described thus: flow cytometry, tetramer + anti-CD8; transfected mix of CD8- and CD8+ Jurkat-derived cells.
Procedure: (§1) For transfection, the CD4+ and CD4+/CD8+ cell mixtures were transiently transfected with TCR-encoding plasmids and 48 hours after transfection, cells were assessed by flow cytometry for (1) binding of the target peptide in the context of an MHC molecule (HLA:A02:01) by staining with an E6(29-38) peptide- or an E7(11-19) peptide-MHC tetramer reagent, and/or (2) CD8+ independent binding of the target by co-staining the tetramer-labeled cells with an anti-CD8 antibody.
For the molecule B1, the “% cells E7 tet+/CD8+ quadrant” value stood at 1.45% and the “% cells E7 tet+/CD8- quadrant” value is 0.28%.
Regarding B2, the “% cells E7 tet+/CD8+ quadrant” value was 4.52% and the “% cells E7 tet+/CD8- quadrant” value was determined as 0.042%.
For B3 the same measures were 25.3% and 33.5%.

The next experiment addresses T2, HLA-A2/E6(29-38) tetramer (human; HPV 16).
T2 construct: also called E6(29-38) peptide-MHC tetramer; E6 tet
Described as above.
Procedure: as §1
B4: the “% cells E6 tet+/CD8+ quadrant” value worked out at 35.6% and the “% cells E6 tet+/CD8- quadrant” value amounted to 28.2%.
The like results for B5 were, in that order, 35.5% and 20.8%.
For B6 the same measures were 21.4% and 40.2%.
With B7, the “% cells E6 tet+/CD8+ quadrant” value was found to be 38.2% and the “% cells E6 tet+/CD8- quadrant” value came to 34.1%.
